Measured values as given in patent US20170240596A1 (CURATORS OF THE UNIVERSITY OF MISSOURI, published 2017).
Values belong to the binder of their own block, whether it stands above or below them. No end group written: not given here.

Legend:
[1] = molecular target: T1, Prostate-specific membrane antigen (PSMA) (human, UniProt Q04609 1-750); assay: apparent Kd by flow cytometry on C4-2 cells; weaker than GTI
T1 construct: whole, on cells; Never tested as an isolated protein against single peptides; also called NAAG peptidase; glutamate carboxypeptidase II (GCPII)

[2] = molecular target: T1, Prostate-specific membrane antigen …; assay: apparent Kd, flow cytometry, FAM-labeled peptide on PSMA-positive LNCaP cells, 4 C, one-site fit
Description: Flow cytometry analysis. Cells were detached using non-enzymatic cell dissociation solution and suspended in PBS (pH=7.4) at a concentration of 1×10⁶ cells/mL. […] The cells were then washed with PBS for three times and subjected to fluorescence analysis on a FACSCalibur flow cytometer (BD Biosciences, Franklin Lakes, N.J.).
Apparent equilibrium dissociation constant (Kd) of the peptides. […] Flow cytometry was employed to determine the percentage of cells that were labeled with the peptides. The apparent Kd values were calculated by fitting to a one-site specific binding model using GraphPad Prism 5.

[3] = molecular target: T1, Prostate-specific membrane antigen …; assay: competitive inhibition on LNCaP cells, peptide pre-incubation at 100 uM then phage, phage titering
Protocol: Competitive inhibition assay. Competitive binding inhibition between selected phages and their encoded peptides was examined in this study. […] The bound phages were recovered and titered as described above.
It was first evaluated whether these phages bind to LNCaP cells via specific interaction with their encoding peptides. LNCaP cells were pre-incubated with the encoding peptides, followed by washing and incubation with the corresponding phages. The bound phages were then eluted and titered.

T1 sequence (Q04609 whole entry): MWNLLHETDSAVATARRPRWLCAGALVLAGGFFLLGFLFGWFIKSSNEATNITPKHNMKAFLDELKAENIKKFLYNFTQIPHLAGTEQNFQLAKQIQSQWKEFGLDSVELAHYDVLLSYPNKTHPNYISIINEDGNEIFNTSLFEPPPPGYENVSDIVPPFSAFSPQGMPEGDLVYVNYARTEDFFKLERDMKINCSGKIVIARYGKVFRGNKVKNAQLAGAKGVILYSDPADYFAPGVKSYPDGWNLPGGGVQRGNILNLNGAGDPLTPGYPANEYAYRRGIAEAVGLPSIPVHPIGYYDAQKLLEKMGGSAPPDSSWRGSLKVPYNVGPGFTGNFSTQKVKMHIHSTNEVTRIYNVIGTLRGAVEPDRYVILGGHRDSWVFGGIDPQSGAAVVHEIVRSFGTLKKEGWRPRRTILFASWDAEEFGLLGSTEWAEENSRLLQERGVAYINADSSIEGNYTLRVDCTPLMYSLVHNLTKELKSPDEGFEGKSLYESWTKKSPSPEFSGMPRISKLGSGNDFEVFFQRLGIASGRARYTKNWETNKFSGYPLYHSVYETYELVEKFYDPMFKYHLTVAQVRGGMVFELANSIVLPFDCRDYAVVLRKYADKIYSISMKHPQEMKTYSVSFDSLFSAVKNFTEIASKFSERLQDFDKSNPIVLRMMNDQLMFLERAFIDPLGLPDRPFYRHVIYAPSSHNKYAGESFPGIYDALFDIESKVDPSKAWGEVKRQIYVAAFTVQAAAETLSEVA

Binder: YVNSHSILGYTG (also: FAM label, position not given here) [FAM-labeled YVN peptide YVNSHSILGYTG]
Kd [2]: 9.34 µM

Binder: HSDNHYRPADKL (also: FAM label, position not given here) [FAM-labeled HSD peptide HSDNHYRPADKL]
Kd [2]: 12.8 µM

Binder: TGHLYPTRMEIQ (also: FAM label, position not given here) [FAM-labeled TGH peptide TGHLYPTRMEIQ]
Kd [2]: 8.01 µM

Results, then the binder that gave them:

binding result [1]: binds
B1: FAM-labeled scrambled GTI peptide SGYQTFYWPGPI (peptide)
peptide: SGYQTFYWPGPI
modifications: also: FAM label, position not given here
notes: Random permutation of the GTI peptide; also called scrambled peptide; scrambled control

binding result [3]: binds
Binder: YVNSHSILGYTG [YVN synthetic peptide YVNSHSILGYTG]

binding result [3]: binds
Binder: TGHLYPTRMEIQ [TGH synthetic peptide TGHLYPTRMEIQ]
